The results in this text go back to US20230312698A1 (NANJING GENSCRIPT BIOTECH, published 2023).

Residue numbers refer to the chain shown, from its start.

The chains are these.
T1: human Ang2 protein (R&D Systems, 623-AN-01M/CF; 623-AN/CF) (human, UniProt O15123 19-496)
T1 construct: Bought recombinant protein; also called Ang2 proteins; angiopoietin-2
T1 sequence (looked up): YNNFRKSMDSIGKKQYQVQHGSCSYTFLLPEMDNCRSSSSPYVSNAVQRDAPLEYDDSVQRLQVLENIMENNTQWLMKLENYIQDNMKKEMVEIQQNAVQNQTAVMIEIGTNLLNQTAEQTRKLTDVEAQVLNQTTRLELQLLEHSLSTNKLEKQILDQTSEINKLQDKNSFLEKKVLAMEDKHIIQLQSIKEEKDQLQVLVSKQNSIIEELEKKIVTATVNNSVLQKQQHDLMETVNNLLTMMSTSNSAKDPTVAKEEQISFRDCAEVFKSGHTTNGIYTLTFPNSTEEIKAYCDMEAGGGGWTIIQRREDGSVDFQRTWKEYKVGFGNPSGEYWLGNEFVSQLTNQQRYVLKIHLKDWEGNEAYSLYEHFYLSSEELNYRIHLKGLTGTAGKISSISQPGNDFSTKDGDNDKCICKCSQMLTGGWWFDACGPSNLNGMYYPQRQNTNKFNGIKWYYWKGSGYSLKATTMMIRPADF

T2: human Ang2 protein (R&D Systems, 623-AN-01M/CF; 623-AN/CF) (human, UniProt O15123 19-496)
T2 chain: T1 sequence (looked up)

T3: mouse Ang2 protein (R&D Systems, 7186-AN-025/CF) (mouse, UniProt O35608 19-496, limits assumed)
T3 construct: Bought recombinant protein
T3 sequence (looked up): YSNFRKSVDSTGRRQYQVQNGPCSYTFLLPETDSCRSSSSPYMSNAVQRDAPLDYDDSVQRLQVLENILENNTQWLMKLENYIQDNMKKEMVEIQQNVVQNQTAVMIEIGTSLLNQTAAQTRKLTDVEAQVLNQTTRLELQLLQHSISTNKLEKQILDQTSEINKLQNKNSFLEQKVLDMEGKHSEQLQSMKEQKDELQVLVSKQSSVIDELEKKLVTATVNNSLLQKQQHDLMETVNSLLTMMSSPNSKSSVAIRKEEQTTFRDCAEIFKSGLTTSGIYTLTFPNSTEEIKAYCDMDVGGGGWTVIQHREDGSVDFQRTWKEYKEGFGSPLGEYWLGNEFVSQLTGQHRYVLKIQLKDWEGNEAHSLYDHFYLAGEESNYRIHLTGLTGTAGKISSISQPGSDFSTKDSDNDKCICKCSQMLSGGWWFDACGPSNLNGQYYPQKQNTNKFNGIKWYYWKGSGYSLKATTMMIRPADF

T4: membrane-anchored cyno Ang2 protein expressed on CHO-K1 cells (cyno, UniProt A0A2K5VNX6 19-496)
T4 chain: T1 sequence (looked up) with E258G, I279V, F284L, I291V, G410A, A468G, D477G

T5: membrane-anchored human Ang2 protein expressed on CHO-K1 cells (human, UniProt O15123 19-496)
T5 chain: T1 sequence (looked up)

B1: 42A2A6 (antibody, V domains shown)
VH: DVQLQESGPGLVKPSQSLSLTCTVTGYSITSDYAWNWIRQFPGNKLEWMGFINYSGTTSYNPSLKSRISLTRDTSKNQFFLQLNSVTTEDTATYYCARWGYSDFLYYFDYWGQGTTLTVSS
VL: QIVLSQSPAILSASPGEKVTMTCRASSSVSYIHWYQQKPGYSPKPWIYATSNLASGVPARFSGGGSGTSYSLTISRVEAEDAATYYCQQWSNNPWTFGGGTKLEIK
notes: Hybridoma antibody purified with Protein-A beads
B2: 46H3H3 (antibody, V domains shown)
VH: EVKLVESGGGLVQPGGSRKLSCAASGFTFSDYGMVWVRQAPGKGLEWVAYIGSGRSTIYYADTVKGRFTISRDNPKNTLFLQMSSLRSEDTAMYYCAREDNGYSYAMDYWGQGTSVTVSS
VL: DIQMTQSPASQSASLGESVTITCLASQTIGTWLAWYQQKPGKSPQLLIYAATSLADGVPSRFSGSGSGTKFSFKISSLQAEDFVSYYCQQLYSTPLTFGAGTKLELK
notes: as for B1
B3: 46F3H4 (antibody, V domains shown)
VH: EVQLHQSGPELVKPGASVKMSCKASGYTFTNYYIHWVKQSHGKSIEWIGYIYPNNGDTTYNQKFKGKATLTVDKSSSIAYMELRSLTSEDSAVYYCAVVSYSNYVAGAMDYWGQGTSVTVSS
VL: SIVMTQTPKFLLVSAGDRVTITCKASQSVSNDVAWYQQKPGQSPKLLIYFASNRYTGVPDRFTGSGYGTDFTFTISTVQAEDLAVYFCQQDYSSPYTFGGGTKLEIK
notes: as for B1
B4: 5A7B9 (antibody, V domains shown)
VH: QIQLVQSGPELKKPGETVKISCKASGYTFTNYGVNWVKQAPGKGLKWMGWINSYSGVPTYADDFKGRFAFSLETSASTAYLQINNLKNEDTATYFCARGENNYYGGSYDWGQGTTLTVSS
VL: B3 VL with F50Y, Y96L, G100A, I106L
notes: as for B1
B5: 4D8F2 (antibody, V domains shown)
VH: DVQLQESGPGLVKPSQSLSLTCTVTGYSITSDYAWNWIRQFPGNKLEWMGYISYSGSTSYNPSLKSRISITRDTSKNQFFLQLNSVTTEDTATYYCARGVRGDMDYWGQGTSVTVSS
VL: B3 VL with F50Y, Y96F, G100S
notes: as for B1
B6: 42C3A4 (antibody, V domains shown)
VH: EVKLEESGGGLVQPGGSMKLSCVASGITFSNYWMDWVRQSPEKGLEWVAEIRLKSNNYATHYAESVKGRFTISRDDSKNSVYLQMNNLRAEDTGIYYCTRGAPLFGGYYKGVYFDYWGQGTTLTVSS
VL: B3 VL with I2F, F10S, V13A, K24Q, D32E, F50Y, N53S, T63A, S93N
notes: as for B1
B7: 49E4C2 (antibody, V domains shown)
VH: B6 VH with N79S, G106D
VL: B3 VL with I2T, F10S, V13A, T20A, D32E, Q42L, F50Y, S93N
notes: as for B1
B8: 85E10B9-VH3-VL1 (antibody, V domains shown)
VH: QVQLVQSGAEVKKPGASVKVSCKASGYTFTNHYLHWVRQAPGQRLEWMGWIGPTNGDTSYAQKFKDRVTITRDTSASTAYMELSSLRSEDTAVYYCAREGYFTNYFDYWGQGTLVTVSS
VL: DIQMTQSPSSLSASVGDRVTITCKASQNVIKYLAWYQQKPGKVPKLLIYNASSLQTGVPSRFSGSGSGTDFTLTISSLQPEDVATYYCLQYNSWWTFGGGTKVEIK
notes: Humanized antibody expressed in CHO-3E7; also called humanized 85E10B9 lead
B9: 53E8B2-VH3-VL2 (antibody, V domains shown)
VH: EVQLVESGGGLVQPGGSLRLSCAASGFTFSDYAMAWVRQAPGKGLEWVATIIYDGSSTYYRDSVKGRFTISRDNAKNSLYLQMNSLRAEDTAVYYCARHGRVFGFGYFDYWGQGTLVTVSS
VL: DIQMTQSPSSVSASVGDRVTITCQASQDIGDWVAWYQQKPGRAPKLLIYGADRLADGVPSRFSGSGSGTDFTLTISSLQPEDFATYYCLQDYSPPFTFGQGTKLEIK
B10: 85E10B9-VH1-VL6 (antibody, V domains shown)
VH: B8 VH with R44G, I70M, A76I, S85R, E89D
VL: B8 VL with V43A, L46R, D70E, E81D, V83F, G99Q
B11: 85E10B9-VH3-VL2 (antibody, V domains shown)
VH: B8 VH
VL: B8 VL with M4L, S10F, V43A, D70E, V83F

In one assay the target is T1, human Ang2 protein (R&D Systems, …). Description: indirect ELISA, human Ang2 coated at 0.5 µg/ml. On the procedure: (§1) The antibodies were tested for their binding activities to Ang2 in an indirect ELISA. Briefly, 100 μl of 0.5 μg/ml human or mouse Ang2 proteins (R&D Systems; 623-AN-01M/CF for human Ang2, 7186-AN-025/CF for mouse Ang2) were pre-coated onto ELISA plates overnight at 4° C. On the next day, the plates were incubated with […] diluted primary antibodies, with initial concentration at 1 μg/ml. The plates were added with HRP-conjugated goat anti-mouse IgG (H+L) and then TMB for chromogenic reaction. The antibody-antigen binding curves were generated with optical density readings at 450 nm. Raw data was plotted using GraphPad Prism v6.02 software with four parameters, and best-fit values program was used to analyze the EC₅₀.
On to B1, for which the binding result was “binds”.

For the molecule B2, the binding result is reported as “binds”.

In the case of B3, the binding result was “binds”.

Turning to B4, the binding result is “binds”.

Consider B5, for which the binding result was “binds”.

In the case of B6, the binding result is “binds”.

With B7, the binding result is “binds”.

Another assay shares this target. Description: indirect ELISA, human Ang2 coated at 0.5 µg/ml, anti-human IgG-HRP. On the procedure:
The humanized antibodies were tested for their binding activities to human Ang2 in an indirect ELISA. Briefly, 100 μl of 0.5 μg/ml human Ang2 proteins (R&D Systems; 623-AN-01M/CF) were pre-coated onto ELISA plates overnight at 4° C. On the next day, the plates were incubated with 100 μl 3× serially diluted primary antibodies, with initial concentration at 1 μg/ml. The plates were added with HRP-conjugated goat anti-human IgG antibody (Jackson, cat #109-605-098) and then TMB for chromogenic reaction. The antibody-antigen binding curves were generated with optical density readings at 450 nm. Antibody ABA and IgG1 were used as a positive and negative control respectively. Raw data was plotted using GraphPad Prism v6.02 software with four parameters, and best-fit values program was used to analyze the EC₅₀.
(In an ELISA, binding on a coated surface is turned into a signal by an enzyme label.)
For B8, the binding result is listed as “binds”.

A further assay concerns the target T2, human Ang2 protein (R&D Systems, …). As to the kind of experiment: ELISA.
Usually EC50 stands for the concentration giving half of the maximal effect. A high value points to weaker potency. Regarding B1, a half-maximal effect (EC50) was put at 9.87 ng/mL.

The molecule B2 returned an EC50 of 6.34 ng/mL.

B3 showed an EC50 of 42.4 ng/mL.

In turn, B4 returned an EC50 of 7.47 ng/mL.

As for B5, the EC50 is 7.17 ng/mL.

For B6, the EC50 was found to be 11.4 ng/mL.

In turn, B7 came in with an EC50 of 11 ng/mL.

The next assay has the same target. As to the kind of experiment: ELISA. The source holds these as a separate data set.
B9 came in with an EC50 of 4.35 ng/mL.

In turn, B10 returned an EC50 of 7.29 ng/mL.

B8 displayed an EC50 of 0.718 ng/mL.

For the molecule B11, the EC50 came out at 4.52 ng/mL.

For another assay, the target named is T3, mouse Ang2 protein (R&D Systems, …). Description: indirect ELISA, mouse Ang2 coated at 0.5 µg/ml. On the procedure:
as §1
With B1, the binding result was “no binding (tested: initial concentration at 1 µg/ml)”.

In the case of B2, the binding result is “no binding (tested: initial concentration at 1 µg/ml)”.

For B3, the binding result is “no binding (tested: initial concentration at 1 µg/ml)”.

In the case of B4, the binding result is recorded as “no binding (tested: initial concentration at 1 µg/ml)”.

For B5, the binding result is on record as “no binding (tested: initial concentration at 1 µg/ml)”.

Another assay concerns the target T4, membrane-anchored cyno Ang2 protein …. Description: FACS. On the technique in general: In flow cytometry, cells or beads pass a laser one at a time.
B1 registered an EC50 of 3.88 nM.

On to B2, for which the EC50 turned out to be 0.342 nM.

Consider B3, for which the EC50 turned out to be 18.8 nM.

For the molecule B4, a half-maximal effect (EC50) was put at 0.662 nM.

B5 had an EC50 of 2.37 nM.

Turning to B6, the EC50 came to 8.13 nM.

In the case of B7, the EC50 stood at 29.4 nM.

In a further assay the target is T5, membrane-anchored human Ang2 protein …. Description: FACS.
For the molecule B1, the EC50 was 7.84 nM.

With B2, the EC50 worked out at 0.203 nM.

B3 had an EC50 of 6.33 nM.

In turn, B4 registered an EC50 of 0.369 nM.

B5 displayed an EC50 of 1.69 nM.

B6: the EC50 turned out to be 0.155 nM.

B7 came in with an EC50 of 0.14 nM.
